How the values were obtained:
NF-YC9-6His = biological target: T1, NF-YC9-6His (Arabidopsis thaliana, UniProt Q8L4B2 1-231); test: EMSA; 5 mM MgCl2, poly(dI-dC); NF-YC9 alone; 25 mM HEPES pH 8.0, 40 mM KCl, 5 mM MgCl2, 1 mM DTT, 1 mM EDTA, 8% glycerol, 1 ug/uL poly(dI-dC), 20 fmol probe, 30 min room temperature, 5% native PAGE; conditions: protein: recombinant; tags: C-terminal 6His (codons in reverse primer); label: 5' biotin; blunt
T1 sequence: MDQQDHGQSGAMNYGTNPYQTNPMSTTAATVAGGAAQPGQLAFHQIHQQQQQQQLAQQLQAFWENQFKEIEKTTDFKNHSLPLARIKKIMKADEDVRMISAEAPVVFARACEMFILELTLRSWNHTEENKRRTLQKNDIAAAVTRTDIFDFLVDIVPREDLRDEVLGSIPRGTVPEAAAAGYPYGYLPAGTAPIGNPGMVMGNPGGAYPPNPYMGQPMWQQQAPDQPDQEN

ABI5-6His = biological target: T2, ABI5-6His (Arabidopsis thaliana, UniProt Q9SJN0 1-442); test: EMSA; 5 mM MgCl2, poly(dI-dC); ABI5 alone, 1 ug; 25 mM HEPES pH 8.0, 40 mM KCl, 5 mM MgCl2, 1 mM DTT, 1 mM EDTA, 8% glycerol, 1 ug/uL poly(dI-dC), 20 fmol probe, 30 min room temperature, 5% native PAGE; conditions: protein: recombinant; tags: C-terminal 6His (codons in reverse primer); chain copies: 2; label: 5' biotin; blunt
T2 sequence: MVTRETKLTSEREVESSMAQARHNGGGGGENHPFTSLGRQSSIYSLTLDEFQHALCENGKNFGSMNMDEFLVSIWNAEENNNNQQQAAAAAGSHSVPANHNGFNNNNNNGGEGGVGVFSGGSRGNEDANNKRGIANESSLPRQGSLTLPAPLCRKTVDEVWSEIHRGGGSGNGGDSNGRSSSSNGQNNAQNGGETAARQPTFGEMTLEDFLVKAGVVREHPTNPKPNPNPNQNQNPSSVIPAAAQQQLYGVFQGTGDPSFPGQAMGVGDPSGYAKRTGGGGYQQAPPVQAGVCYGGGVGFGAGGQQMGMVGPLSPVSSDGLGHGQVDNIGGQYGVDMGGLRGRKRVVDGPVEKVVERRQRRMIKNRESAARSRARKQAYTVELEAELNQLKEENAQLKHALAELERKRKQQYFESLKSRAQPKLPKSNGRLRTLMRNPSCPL

B1: EM6 promoter probe (-277 to -220, contains pEm6.2) (dsDNA)
DNA 1: ACCACGTTCAAAGTATACGTCAGCTAATAAAGTCAGACACGTGGCATGTCACCAAGAA
DNA 2: TTCTTGGTGACATGCCACGTGTCTGACTTTATTAGCTGACGTATACTTTGAACGTGGT
B1: no binding (NF-YC9-6His); binds (ABI5-6His).
